Test results from article PMC3459099.
pKd: −log10 of the molar value.

Target: ERp57-Cys57Ser–Cys406Ser double mutant (mutated ERp57) (human) (UniProt P30101)
Experiment: ELISA

recombinant N-terminal region of β-DG, β-DG(654–750), biotinylated (domain or fragment)
pKd: 5.00
